Reference: patent publication US10925971B2, “Methods of treating PRLR positive breast cancer” (Regeneron Pharmaceuticals, Inc., priority 2016, dated 2021)

B1: H1H6958N2: anti-PRLR antibody, receptor blocking, human IgG1 Fc form of H2M6958N2 of Table 1; HCVR/LCVR SEQ ID NOs 290/298 (antibody, V domains shown)
VH: QVQLVESGGGVVQPGRSLRLSCGASGFTFRNYGMQWVRQGPGKGLEWVTLISFDGNDKYYADSVKGRFTISRDNSKNTLFLQMNSLRTEDTAVYYCARGGDFDYWGQGTLVTVSS
VL: DIQMTQSPSSLSASVGDRVTITCRASQDIRKDLGWYQQKPGKAPKRLIYAASSLHSGVPSRFSGSGSGTEFTLTISSLQPEDFATYYCLQHNSYPMYTFGQGTKLEIK
B2: H1H6975N: anti-PRLR antibody, human IgG1 Fc form of H2M6975N of Table 1; HCVR/LCVR SEQ ID NOs 370/378 (antibody, V domains shown)
VH: EVHLVESGGGLVQPGGSLRLSCAASGFTFSSYEMNWVRQTPGKGLEWISHISSRSVIIYYADSVKGRFTISRDNAKNSLFLQMNSLRAEDTAVYFCAGITIFGIPEYWGQGTLVTVSS
VL: EIVLTQSPATLSLSPGERATLSCRASQSVSSYFAWYQQKPGQAPRLLIYDASSRATGIPTRFSGSGSGTDFTLTISSLEPEDFAVYYCQQRSSWPITFGQGTRLEIK
modifications: human IgG1 Fc
B3: H1H6765P: fully human anti-PRLR antibody, human IgG1 Fc; HCVR/LCVR SEQ ID NOs 18/26 (antibody, V domains shown)
VH: EVQLVESGGGVVRPGGSLRLSCVGSGFSFDDHGMNWVRQGPGKGLEWVSGFNWNGGSTNYAESVKGRFTISRDNARNSLFLQMNSLRAEDTALYYCVRGRSGWFNDAFDVWGPGTMVTVSS
VL: EIVLTQSPGTLSLSPGERATLSCRASQTINSNYLAWYRQKPGQTPRLLIYGTSSRATGIPDRFSGSGSGTDFSLTISRLEPEDFAVFYCQQYAGLPTFGPGTKVDIK
B4: H1H6774P: fully human anti-PRLR antibody, human IgG1 Fc; HCVR/LCVR SEQ ID NOs 34/42 (antibody, V domains shown)
VH: EVQLVESGGGLAQPGGSLRLSCVASGFTFSTYWMSWVRQAPGKGLDWVGNIKQDGSEQNYVDSVRGRFTISRDNAKNSLFLQMNSLRAEDTGVYYCATLLTKGDYWGQGTLVTVSS
VL: DIQMTQSPSSLSASVGDSVTITCRASQDISNYLDWFQQKPGKAPKSLIYAASILQGGVPSRFSGSGYGTDFTLTISSLQPEDFATYYCRQYKTYPFTFGPGTKVDIK
B5: H1H6782P: fully human anti-PRLR antibody, non-blocking; HCVR/LCVR SEQ ID NOs 66/74 (antibody, V domains shown)
VH: EVQLVESGGGLVQPGRSLRLSCAASGFTFDDYAMHWVRQAPGKGLEWVSGIIWNSGHIGYGDSVKGRFTISRDNAKKSLYLQMNSLRAEDTALYYCARDSGRYQSYFDYWGQGTLVTVSS
VL: DIQMTQSPSTLSASVGDRVTITCRASHIISSWLAWYQQKPGKAPKVLIFKASSLESGVPSRFSGSGSGTEFTLTISSLQPDDFATYYCQQYNTYSRTFGQGTKVEIK
B6: H1H6795P: fully human anti-PRLR antibody, human IgG1 Fc; HCVR/LCVR SEQ ID NOs 162/170 (antibody, V domains shown)
VH: QVQLVQSGAEVKKPGASVKVSCKASGYTFGTSGITWVRQAPGQGLEWMGWSSAYNGKTDYAQKFQDRVTMTTDTSTTTGYMEMRSLTSDDTAVYYCTTVVRRPFDFWGQGTLVTVSS
VL: DIQMTQSPSSLSASVGDRVTITCRASQDINNFLAWFQQKPGKAPKSLIYAASSLQSGVPSKFSGGGSGTDFALTISSLQPEDFATYYCQQYSSYPITFGQGTRLEIK
B7: H1H6797P: fully human anti-PRLR antibody, human IgG1 Fc; HCVR/LCVR SEQ ID NOs 178/186 (antibody, V domains shown)
VH: EVQLVESGGGLVQPGGSLRLSCIVSGFTFSGSWMSWVRQLPGKGLEWVANIKEDGSDSYYVDSVEGRFTISRDNAKSSLYLQMNSLRVDDTAVYFCARARTVPLHYWGQGTLVTVSS
VL: DIQMTQSPSTLSASVGDRVTITCRASQSINIWLAWYQQKPGKAPKLLIYRASYLESGVPSSFAGGGSGTEFTLTISSLQPDDFGTYYCQHYNSYPFTFGQGTKLEIK
B8: H1H6953N: anti-PRLR antibody, human IgG1 Fc form of H1M6953N of Table 1; HCVR/LCVR SEQ ID NOs 274/282 (antibody, V domains shown)
VH: EVQLLESGGGLVQPGGTLRLSCAASGFTFSAYAMSWVRQAPGKGLEWVSSINVRAGDTYYADSVKGRFTISRDNSKNTLFLLMNSLRAEDTAAYYCAKARYSSNWGFDFWGQGTLVTVSS
VL: DIVMTQSPDSLTVSLGARTTINCQSSQTILHSSNNHNYLAWYQQKPGLPPKLLIYWSSTRESGVPDRFSGSGSGTDFTLTISSLQAEDVAIYYCQQYSNTPYTFGQGTKLEIN

Columns and labels:
Test in all cases: FACS cell surface binding
[1] = tested on: HEK293 parental cells; design: species or system human
Procedure, shortened: (§1)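 HEK293 cells stably transfected with HA-tagged human, cynomolgus or mouse PRLR (G418-selected), or parental HEK293, were stained with 10 μg/ml antibody for 30 min on ice. Binding was then detected with 10 μg/ml PE anti-human secondary for 30 min on ice, and MFI was expressed as fold over isotype control.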

[2] = biological target: T1, human PRLR on HEK293/hPRLR cells (Homo sapiens, UniProt P16471)
T1 construct: HA; expressed in transfected cells; host or cells: HEK293
T1 sequence (P16471 25-622): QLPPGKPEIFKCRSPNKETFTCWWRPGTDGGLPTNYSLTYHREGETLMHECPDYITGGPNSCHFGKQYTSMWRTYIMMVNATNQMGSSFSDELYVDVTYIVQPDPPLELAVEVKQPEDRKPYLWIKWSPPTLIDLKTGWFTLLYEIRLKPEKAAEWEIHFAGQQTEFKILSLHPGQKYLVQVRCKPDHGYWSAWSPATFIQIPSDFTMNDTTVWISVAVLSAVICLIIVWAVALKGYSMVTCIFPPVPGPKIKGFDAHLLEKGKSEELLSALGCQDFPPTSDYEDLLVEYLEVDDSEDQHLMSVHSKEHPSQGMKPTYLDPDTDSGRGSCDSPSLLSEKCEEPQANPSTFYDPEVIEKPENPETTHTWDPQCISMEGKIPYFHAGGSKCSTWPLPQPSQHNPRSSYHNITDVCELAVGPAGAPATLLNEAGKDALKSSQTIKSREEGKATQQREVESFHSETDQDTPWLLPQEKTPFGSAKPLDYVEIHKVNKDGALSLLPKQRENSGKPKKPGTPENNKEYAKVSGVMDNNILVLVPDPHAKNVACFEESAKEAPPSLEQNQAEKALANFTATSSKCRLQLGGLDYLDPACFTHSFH
Procedure, shortened: as §1

[3] = biological target: T2, monkey PRLR on HEK293/mfPRLR cells (Macaca fascicularis, UniProt A0A2K5WXK1)
T2 construct: HA; expressed in transfected cells; host or cells: HEK293
T2 sequence (A0A2K5WXK1 25-619): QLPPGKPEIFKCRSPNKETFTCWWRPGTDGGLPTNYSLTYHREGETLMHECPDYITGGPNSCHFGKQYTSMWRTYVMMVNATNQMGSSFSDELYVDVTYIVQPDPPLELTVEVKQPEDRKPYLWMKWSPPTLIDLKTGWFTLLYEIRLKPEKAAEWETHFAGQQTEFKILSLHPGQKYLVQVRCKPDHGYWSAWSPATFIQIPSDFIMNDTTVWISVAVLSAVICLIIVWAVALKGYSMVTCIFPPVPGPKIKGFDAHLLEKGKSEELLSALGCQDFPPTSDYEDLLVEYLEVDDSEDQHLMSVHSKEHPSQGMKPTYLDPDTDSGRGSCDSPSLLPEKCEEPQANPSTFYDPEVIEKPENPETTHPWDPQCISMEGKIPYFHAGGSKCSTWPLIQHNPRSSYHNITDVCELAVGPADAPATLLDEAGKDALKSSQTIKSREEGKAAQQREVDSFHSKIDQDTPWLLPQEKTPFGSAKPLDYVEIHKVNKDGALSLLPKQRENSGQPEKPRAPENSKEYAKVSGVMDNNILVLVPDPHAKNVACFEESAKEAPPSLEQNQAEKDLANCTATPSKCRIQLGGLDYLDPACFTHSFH
Procedure, shortened: as §1

[4] = biological target: T3, mouse PRLR on HEK293/mPRLR cells (Mus musculus, UniProt Q08501)
T3 construct: HA; expressed in transfected cells; host or cells: HEK293
T3 sequence (Q08501 20-608): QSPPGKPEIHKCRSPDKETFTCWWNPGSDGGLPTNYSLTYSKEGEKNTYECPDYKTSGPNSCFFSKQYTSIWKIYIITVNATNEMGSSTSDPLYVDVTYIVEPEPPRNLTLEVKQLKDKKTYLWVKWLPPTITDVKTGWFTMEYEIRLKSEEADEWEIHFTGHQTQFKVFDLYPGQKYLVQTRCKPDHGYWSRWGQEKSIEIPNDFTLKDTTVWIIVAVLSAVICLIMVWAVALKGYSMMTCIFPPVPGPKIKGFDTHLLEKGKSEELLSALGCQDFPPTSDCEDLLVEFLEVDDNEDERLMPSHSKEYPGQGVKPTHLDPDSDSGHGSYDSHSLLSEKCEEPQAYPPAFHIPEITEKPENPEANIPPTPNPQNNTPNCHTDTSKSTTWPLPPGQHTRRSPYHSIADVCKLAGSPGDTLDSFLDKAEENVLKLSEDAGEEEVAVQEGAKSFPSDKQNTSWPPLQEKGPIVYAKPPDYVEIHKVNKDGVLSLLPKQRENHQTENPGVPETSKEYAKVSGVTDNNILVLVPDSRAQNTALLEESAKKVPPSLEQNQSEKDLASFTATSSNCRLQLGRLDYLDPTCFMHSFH
Procedure, shortened: as §1

Molecule | FACS Cell Binding [1] [Fold Above Background] | FACS Cell Binding [2] [Fold Above Background] | FACS Cell Binding [3] [Fold Above Background] | FACS Cell Binding [4] [Fold Above Background]
B1 | 1 | 35 | 30 | 1
B2 | 1 | 38 | 29 | 1
B3 | 2 | 38 | 27 | 1
B4 | 1 | 1 | 29 | 1
B5 | 3 | 41 | 32 | 4
B6 | 1 | 1 | 22 | 1
B7 | 1 | 1 | 25 | 2
B8 | 2 | 37 | 29 | 2
